Source: article PMC7893823

Columns and labels:
[1] = molecular target: human SET8 (KMT5A Isoform 2), Q9NQR1-2; experiment: gel shift assay; conditions: NCPapd 0.52 µM, dsDNA 50-mer competitor DNA included, read off a plot
[2] = molecular target: nucleosome core particle (NCP) with human histones H2A, H2B, H3.1 and H4 and the 145-base pair Widom 601 DNA, P04908;P06899;P68431;P62805; experiment: gel shift assay; conditions: NCP 0.52 µM, dsDNA 50-mer competitor DNA included, read off a plot

Sequence of human SET8 (KMT5A Isoform 2), Q9NQR1-2 (Q9NQR1 whole entry, looked up, canonical isoform): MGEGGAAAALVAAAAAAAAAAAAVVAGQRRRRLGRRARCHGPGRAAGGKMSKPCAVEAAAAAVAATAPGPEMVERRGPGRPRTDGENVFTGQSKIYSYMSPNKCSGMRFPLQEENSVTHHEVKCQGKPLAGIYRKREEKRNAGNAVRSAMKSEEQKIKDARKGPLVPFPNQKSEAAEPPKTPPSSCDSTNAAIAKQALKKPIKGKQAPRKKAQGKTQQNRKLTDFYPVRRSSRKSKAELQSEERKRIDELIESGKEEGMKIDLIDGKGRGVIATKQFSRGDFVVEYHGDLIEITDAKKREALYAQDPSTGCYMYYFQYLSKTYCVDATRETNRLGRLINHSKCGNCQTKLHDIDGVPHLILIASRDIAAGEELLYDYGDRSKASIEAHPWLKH

response ([1]; SET8 1.0 µM, parent: est. 61)	response ([1]; SET8 2.1 µM, parent: est. 91)	response ([2]; SET8 R188A/R192A 1.0 µM, parent: est. 61)	response ([2]; SET8 R188A/R192A 2.1 µM, parent: est. 91)	Substance
4.5%	13%			nucleosome core particle (NCP) with human histones H2A, H2B, H3.1 and H4 and the 145-base pair Widom 601 DNA (from UniProt P04908;P06899;P68431;P62805) H2A:E56T; H2A:E61T; H2A:E64T; H2A:D90S; H2A:E91T; H2A:E92T; H2B:E105T; H2B:E113T
		23%	54%	human SET8 (KMT5A Isoform 2) (from UniProt Q9NQR1-2) R188A; R192A
